From paper doi:10.1101/2024.05.23.595586 (bioRxiv, 2024) come the findings set out here.

The test addresses T1, MBP-TREM2 N79Q (MBP fused to TREM2 19-134) (human, UniProt Q9NZC2 19-134, N79Q).
T1 sequence (looked up): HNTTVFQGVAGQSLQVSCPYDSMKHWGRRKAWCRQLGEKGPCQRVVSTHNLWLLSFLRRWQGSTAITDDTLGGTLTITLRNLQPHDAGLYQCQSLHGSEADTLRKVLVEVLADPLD
Put plainly: crystal structure.

For DAEFRHDS [Amyloid beta peptide (1-8)], the binding result was “binds”.
